Measurements published in patent US20230060409.

Tested on: Ras

“mouse neurofibromin expressed from full-length mNf1 cDNA with exon 28 deleted” was tested, and the “Ras assays (GTP-Ras levels, p-ERK/ERK ratio, ELK1 transcriptional activity)” value was “exon 28 deletion performed the worst in Ras assays as it retained the least function”.
